Test results from the supplement of paper PMC12042874.
± gives the uncertainty stated by the source.

Test: amyloid nucleation score (Sup35N fusion, yeast selection) (log enrichment); library NNK3; higher = more nucleation; inactive = no reads after selection
How it was run: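 Psi-negative yeast expressed Sup35N fused to peptides of 20 random codons. They were induced 24 hours with 100 μM copper sulfate, grown 7 days at 30°C without adenine and uracil, and their plasmid inserts from input and output were Illumina-sequenced. The nucleation score is the DiMSum log enrichment of output over input reads, centred on the mode score of non-aggregating sequences. Sequences with under 100 input reads were excluded.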

**Q.** For NQQWIP, which amyloid nucleation score is on record?
**A.** inactive

**Q.** Which amyloid nucleation score does the source give for NQVVAVG here?
**A.** inactive

**Q.** With NRCKLNVAGHLCANRTRRFR as the substance, how does the amyloid nucleation score read?
**A.** inactive

**Q.** For NRCQKSVVYLSLVYYHGIGM, which amyloid nucleation score is on record?
**A.** inactive

**Q.** Which amyloid nucleation score does the source give for NRIMGVGLY here?
**A.** inactive

**Q.** With NRIVTVLMFCWLEG as the substance, how does the amyloid nucleation score read?
**A.** inactive

**Q.** For NRLFTH, which amyloid nucleation score is on record?
**A.** inactive

**Q.** With NRMNKSEDGTSKCFESDRWG as the substance, how does the amyloid nucleation score read?
**A.** inactive

**Q.** With NRRIMVSSFRKVFLSGYGWF as the substance, how does the amyloid nucleation score read?
**A.** inactive

**Q.** With NRSPLCLKC as the substance, how does the amyloid nucleation score read?
**A.** inactive

**Q.** For NRVDIRLVKCYWSGDSGGVE, which amyloid nucleation score is on record?
**A.** inactive

**Q.** For NRYLFLIGSA, which amyloid nucleation score is on record?
**A.** inactive

**Q.** For NSFSLGNSLNPYKAAPRRML, which amyloid nucleation score is on record?
**A.** inactive

**Q.** With NSFYNWSSEKKL as the substance, how does the amyloid nucleation score read?
**A.** inactive

**Q.** For NSLVLTLLNLVGKSLHHFYN, which amyloid nucleation score is on record?
**A.** inactive

**Q.** Which amyloid nucleation score does the source give for NSNGCVQGQRFSWPWVGRLA here?
**A.** inactive

**Q.** Which amyloid nucleation score does the source give for NSQRASCSSLTYRSELYGNS here?
**A.** inactive

**Q.** For NSVNMTRCRVYTCFAFCNW, which amyloid nucleation score is on record?
**A.** 3.13 ± 0.07

**Q.** For NSVQAWPMIELEQPLKSLVQ, which amyloid nucleation score is on record?
**A.** inactive

**Q.** With NSVRYLTWVAFLVCLMAYML as the substance, how does the amyloid nucleation score read?
**A.** inactive

**Q.** For NSYEEWSKWHFSNWSGFSGC, which amyloid nucleation score is on record?
**A.** inactive

**Q.** For NSYKVLTYVFCQVRANTIYC, which amyloid nucleation score is on record?
**A.** 2.04 ± 0.059

**Q.** For NTCKRYGEVI, which amyloid nucleation score is on record?
**A.** 2.2 ± 0.058

**Q.** Which amyloid nucleation score does the source give for NTEGCSSQICRN here?
**A.** inactive

**Q.** Which amyloid nucleation score does the source give for NTIHITTWDELVQLAQCDNL here?
**A.** inactive

**Q.** With NTLDERDCRSKLFAFLLRPS as the substance, how does the amyloid nucleation score read?
**A.** inactive

**Q.** For NTLGGRLLSLCARGMAIDCL, which amyloid nucleation score is on record?
**A.** 0.625 ± 0.35

**Q.** Which amyloid nucleation score does the source give for NTNGMQDLSLCCRCYDTELR here?
**A.** inactive

**Q.** With NTPGYSELIVFGST as the substance, how does the amyloid nucleation score read?
**A.** inactive

**Q.** With NTPNCYFVLRRVILMRLKLS as the substance, how does the amyloid nucleation score read?
**A.** inactive

**Q.** Which amyloid nucleation score does the source give for NTRLSRLKIVFPCL here?
**A.** inactive

**Q.** Which amyloid nucleation score does the source give for NTSWLNSWATVITIWPYCAL here?
**A.** 0.724 ± 0.2

**Q.** For NTVTHR, which amyloid nucleation score is on record?
**A.** inactive

**Q.** For NTYRMMKGLSPVFMKMLCTP, which amyloid nucleation score is on record?
**A.** inactive

**Q.** Which amyloid nucleation score does the source give for NVADALS here?
**A.** inactive

**Q.** Which amyloid nucleation score does the source give for NVALVRTGVIHWSYSVISRV here?
**A.** inactive

**Q.** Which amyloid nucleation score does the source give for NVCAVNFAWSITIWRYNY here?
**A.** inactive

**Q.** For NVDGVVLDCLSSLDSEWGYV, which amyloid nucleation score is on record?
**A.** inactive

**Q.** With NVFIHLFTILALGFHL as the substance, how does the amyloid nucleation score read?
**A.** inactive

**Q.** Which amyloid nucleation score does the source give for NVHVISVFGFYEVTLFNDEV here?
**A.** inactive

**Q.** Which amyloid nucleation score does the source give for NVIMCLRCQY here?
**A.** 2.03 ± 0.1

**Q.** Which amyloid nucleation score does the source give for NVQSSGSRGAR here?
**A.** inactive

**Q.** For NVSYLGEVWYKFRLCVVCSR, which amyloid nucleation score is on record?
**A.** 0.159 ± 0.27

**Q.** With NVTDVMRNISMTQLMFYLFA as the substance, how does the amyloid nucleation score read?
**A.** 1.74 ± 0.062

**Q.** Which amyloid nucleation score does the source give for NVYYSPFCWCMPDMFFDSIC here?
**A.** 2.88 ± 0.08

**Q.** With NWAGLHIVKYRLPPHTHLWH as the substance, how does the amyloid nucleation score read?
**A.** inactive

**Q.** For NWAGRLWLTV, which amyloid nucleation score is on record?
**A.** inactive

**Q.** Which amyloid nucleation score does the source give for NWGRKCLFSSWCLLYVDNGT here?
**A.** 0.555 ± 0.2

**Q.** Which amyloid nucleation score does the source give for NWGSYSMDMRSCSGINRRP here?
**A.** inactive

**Q.** For NWKKCYVHYISSADYALRRF, which amyloid nucleation score is on record?
**A.** inactive

**Q.** With NWKLYWYNVSCL as the substance, how does the amyloid nucleation score read?
**A.** 1.65 ± 0.067

**Q.** For NWLLRYLYCRTNFGCCYR, which amyloid nucleation score is on record?
**A.** -0.552 ± 0.7

**Q.** With NWMDDWSYVVVSF as the substance, how does the amyloid nucleation score read?
**A.** -1.13 ± 2.5

**Q.** Which amyloid nucleation score does the source give for NWSYRDGREPHYI here?
**A.** 1.15 ± 0.12

**Q.** Which amyloid nucleation score does the source give for NWTYTAENPG here?
**A.** inactive

**Q.** For NYDFWVQTISECCELEFVM, which amyloid nucleation score is on record?
**A.** inactive

**Q.** Which amyloid nucleation score does the source give for NYECNGWVGFVLTVPYGTIW here?
**A.** inactive

**Q.** Which amyloid nucleation score does the source give for NYGTLMYTVL here?
**A.** inactive

**Q.** With NYHRDSDVLTIFVISCPFLR as the substance, how does the amyloid nucleation score read?
**A.** inactive

**Q.** For NYILSHWELV, which amyloid nucleation score is on record?
**A.** inactive

**Q.** For NYNCVVDNLSGKCMNEILGY, which amyloid nucleation score is on record?
**A.** 1.09 ± 0.097

**Q.** With NYPIA as the substance, how does the amyloid nucleation score read?
**A.** inactive

**Q.** Which amyloid nucleation score does the source give for NYRERS here?
**A.** inactive

**Q.** For NYWIHVNVAMRVNYYRFFMF, which amyloid nucleation score is on record?
**A.** inactive

**Q.** For NYWSTQLSIFCCKDCATTSA, which amyloid nucleation score is on record?
**A.** 2.42 ± 0.063

**Q.** For PAMDII, which amyloid nucleation score is on record?
**A.** inactive

**Q.** With PAVQGSKDAASSAERCACQR as the substance, how does the amyloid nucleation score read?
**A.** inactive

**Q.** For PCECTNHLACDNIPMRYTE, which amyloid nucleation score is on record?
**A.** inactive

**Q.** With PCICMVIQSGLDEYAYHVQR as the substance, how does the amyloid nucleation score read?
**A.** inactive

**Q.** Which amyloid nucleation score does the source give for PCMNGVASFWNCGIKIFGSF here?
**A.** inactive

**Q.** With PCPSEFDLSGRYRAAWVRCS as the substance, how does the amyloid nucleation score read?
**A.** inactive

**Q.** Which amyloid nucleation score does the source give for PCSSLHCYMWYYVGANCHNL here?
**A.** inactive

**Q.** Which amyloid nucleation score does the source give for PDLDYFMIHA here?
**A.** inactive

**Q.** For PDSMNFTPDNHHVRNGYNNF, which amyloid nucleation score is on record?
**A.** inactive

**Q.** With PECVVKSTN as the substance, how does the amyloid nucleation score read?
**A.** inactive

**Q.** For PELRRLTMESYIRNFWSVLS, which amyloid nucleation score is on record?
**A.** inactive

**Q.** With PFHGCPTHDCFNAGILALTV as the substance, how does the amyloid nucleation score read?
**A.** inactive

**Q.** With PFRVLLQGIKDAPSKFIDSG as the substance, how does the amyloid nucleation score read?
**A.** inactive

**Q.** With PFSFCHLLLSKISIGWRYSL as the substance, how does the amyloid nucleation score read?
**A.** inactive

**Q.** With PGFLGVPTACPLVSYDAVYP as the substance, how does the amyloid nucleation score read?
**A.** inactive

**Q.** Which amyloid nucleation score does the source give for PGYSCIRDIQITR here?
**A.** inactive
